The text below walks through data of US20090092555A1 (published 2009).

Series [1] deals with the molecule itself. The experiment in a line: Superose 12 gel filtration. An excerpt:
N-terminal Deletion—The Del-8 mutant lacks the first 8 N-terminal amino acids of PlyCB but retains full binding activity. Formation of a stable octamer is confirmed by comparing the elution profile of the Del-8 PlyCB mutant on a Superose 12 gel to Bio-Rad gel filtration standards. Accordingly, the N-terminal region can be completely deleted and not affect formation of the stable octamer. Given the non-structural role of this sequence, this region can be modified or engineered.
A general note: In gel filtration, larger molecules generally elute earlier.

The target in series [2] is T1, PlyCA (heavy chain of the streptococcal C1 bacteriophage lysin PlyC) (streptococcal C1 bacteriophage, UniProt Q7Y3F1 2-465).
T1 construct: One PlyCA for eight PlyCB in the holoenzyme (about 114 kDa by gel filtration); also called PlyC heavy chain; plyCA gene product
T1 sequence (looked up): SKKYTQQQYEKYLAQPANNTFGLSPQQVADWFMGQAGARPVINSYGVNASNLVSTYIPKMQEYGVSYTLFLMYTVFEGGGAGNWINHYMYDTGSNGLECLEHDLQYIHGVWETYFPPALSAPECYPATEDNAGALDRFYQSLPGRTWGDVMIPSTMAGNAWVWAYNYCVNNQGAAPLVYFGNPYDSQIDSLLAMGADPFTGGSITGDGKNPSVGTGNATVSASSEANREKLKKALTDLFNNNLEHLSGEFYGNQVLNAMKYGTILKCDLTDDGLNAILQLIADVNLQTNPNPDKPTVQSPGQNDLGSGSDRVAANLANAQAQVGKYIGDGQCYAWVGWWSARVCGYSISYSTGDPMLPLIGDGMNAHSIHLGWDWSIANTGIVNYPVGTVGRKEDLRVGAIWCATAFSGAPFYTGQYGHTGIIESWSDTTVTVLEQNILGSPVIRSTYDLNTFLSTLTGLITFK
The series can be described thus: native PAGE against SDS/PAGE (two bands, PlyCA and PlyCB); N-terminal sequencing of the native band gives both chains. An excerpt: PlyC Consists of a Heavy Chain (PlyCA) and a Light Chain (PlyCB)—PlyC purified from C₁ bacteriophage lysates behaves as a homogeneous protein on native-gel electrophoresis (FIG. 1A). Moreover, this protein band is responsible for the lytic activity, as observed by formation of a clearing zone on an overlay of streptococci-embedded agarose (FIG. 1B). […] N-terminal sequencing of the PlyC heavy and light chains results in two unique sequences ([…] and […], respectively), and sequencing of the native band results in a dual sequence, which corresponds exactly to both chains.
Expression and Purification of the PlyC Clone—PlyC is induced with 0.5% arabinose overnight from XL1-blue/pBAD24::plyC cultures. Cells are washed in 20 mM phosphate buffer at pH 7.0 and are lysed with 20% wt/vol chloroform to yield crude PlyC. Alternatively, group C streptococci are infected with the C1 bacteriophage as previously described (Nelson et al., 2001), and phage-produced PlyC are isolated from the crude lysate. Purification of the phage-derived enzyme and the recombinant enzyme are identical to previously described methods (Nelson et al., 2001). Purified enzymes are routinely stored in PBS at 4° C. and are stable for several months. Purification of the individually expressed heavy and light chains use the same column-chromatography methods as the native enzyme. […]

Series [3] concerns the molecule itself. The experiment in a line: gel filtration, with and without 0.1% SDS.

B1: Del-8 PlyCB mutant (8 amino acid N-terminal deletion of PlyCB), monomer (other)
chain: NVSGVQGFLFHTDGKESYGYRAFINGVEIGIKDIETVQGFQQIIPSINISKSDVEAIRKAMKK
notes: Monomer, used for the entry on self-assembly into the octamer; also called N-terminal deletion variant of PlyCB
For the molecule B1, in series [1], the binding result is recorded as “binds”.

B2: PlyCB octamer (wild-type) (other)
chain: SKINVNVENVSGVQGFLFHTDGKESYGYRAFINGVEIGIKDIETVQGFQQIIPSINISKSDVEAIRKAMKK
notes: Ring of eight identical PlyCB monomers, about 64 kDa; the partner of PlyCA in the PlyC holoenzyme; also called octameric protein
In the case of B2, the binding result in series [2] is recorded as “binds”.

B3: PlyCB monomer (wild-type, light chain of the streptococcal C1 bacteriophage lysin PlyC) (other)
chain: SKINVNVENVSGVQGFLFHTDGKESYGYRAFINGVEIGIKDIETVQGFQQIIPSINISKSDVEAIRKAMKK
notes: also called PlyC light chain; plyCB gene product
As to B3, in series [3], the binding result is “binds”.
